{
  "source": "patent US20200239597A1",
  "about": "“AN ANTI-APOPTOTIC FUNCTION OF PKM2 AND INTRACELLULARLY EXPRESSED SCFV ANTIBODIES” (La Jolla Institute for Allergy and Immunology, priority 2017, published 2020)",
  "key": {"[1]": {"tested_on": "U2OS cells", "assay": "Clonogenic rescue from BimS-induced death, U2OS", "format": "cell-based"}, "[2]": {"tested_on": "HCT116 cells", "assay": "Clonogenic rescue from BimS-induced death, HCT116", "format": "cell-based"}, "[3]": {"tested_on": "MDA-MB231", "assay": "Clonogenic rescue from BimS-induced death, MDA-MB231", "format": "cell-based", "details": "parental MDA-MB231", "experimental": "Control or IB5-expressing cells were transfected with BimS cDNA. The plates were fixed and stained with crystal violet after 12 days and the total areas of colonies were measured. Mean, SD and P values were calculated from 3 individual plates."}, "[4]": {"tested_on": "293T cells", "assay": "Protection from death induced by transient expression of tBid", "format": "cell-based, human", "details": "surviving cells counted after 72 h", "experimental": "FIG. 2B is a non-limiting graph representation of a transfection assay to assess the effect of IB5 in cells transfected with pro-apoptotic proteins BimS and tBid encoding cDNA. […] 293T cells were transfected treated with […] tBid or BimS cDNA. Surviving cells were counted after 72 h."}, "[5]": {"molecular_target": "T1, WT PKM2 (Homo sapiens, UniProt P14618)", "T1 construct": "His (N); made in house; host or cells: Escherichia coli BL21(DE3)", "assay": "Blue native gel electrophoresis of recombinant proteins, WT PKM2", "format": "binding", "experimental": "(§1) Left: A monovalent form of scFv 5, produced in E. coli, induced tetramer formation in WT PKM2 along with a bandshift whose magnitude was dependent on the input amount of scFv 5. […] Reaction volume was 20 μl.\nBecause glucose metabolism can influence cell survival (Fulda and Debatin, 2007; Moley and Mueckler, 2000; Munoz-Pinedo et al., 2012), The present inventors asked whether IB5 could rescue cells simply through stimulating PKM2's glycolytic activity. First, to analyze the antibody's interaction with PKM2, the present inventors produced monovalent scFv 5 and PIKM2 as recombinant proteins in E. coli and analyzed mixtures of these proteins, by blue native gel electrophoresis (FIG. 3A)."}, "[6]": {"molecular_target": "PKM1 (Homo sapiens, UniProt P14618)", "sequence (P14618 1-531 isoform P14618-2, species assumed)": "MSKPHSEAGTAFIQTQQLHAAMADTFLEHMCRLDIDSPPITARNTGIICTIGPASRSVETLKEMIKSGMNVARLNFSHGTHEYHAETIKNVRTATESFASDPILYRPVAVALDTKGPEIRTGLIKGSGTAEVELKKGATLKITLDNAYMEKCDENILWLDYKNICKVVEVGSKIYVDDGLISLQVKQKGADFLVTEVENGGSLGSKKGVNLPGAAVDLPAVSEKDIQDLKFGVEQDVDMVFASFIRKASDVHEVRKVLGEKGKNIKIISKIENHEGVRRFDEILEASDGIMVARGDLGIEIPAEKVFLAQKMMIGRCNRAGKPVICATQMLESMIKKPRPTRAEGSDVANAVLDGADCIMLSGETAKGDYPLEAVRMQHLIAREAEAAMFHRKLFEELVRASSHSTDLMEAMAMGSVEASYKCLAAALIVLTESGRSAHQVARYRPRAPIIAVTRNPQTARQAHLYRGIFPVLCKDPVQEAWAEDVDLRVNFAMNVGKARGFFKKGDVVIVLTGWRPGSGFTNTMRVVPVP", "assay": "Blue native gel electrophoresis of recombinant proteins, PKM1", "format": "binding"}, "[7]": {"molecular_target": "T2, PKM2 (K422R) (Homo sapiens, UniProt P14618, K422R)", "T2 construct": "His; made in house; host or cells: Escherichia coli BL21(DE3) (stated generally for WT and mutant PKM2)", "T2 sequence (P14618 whole entry K422R)": "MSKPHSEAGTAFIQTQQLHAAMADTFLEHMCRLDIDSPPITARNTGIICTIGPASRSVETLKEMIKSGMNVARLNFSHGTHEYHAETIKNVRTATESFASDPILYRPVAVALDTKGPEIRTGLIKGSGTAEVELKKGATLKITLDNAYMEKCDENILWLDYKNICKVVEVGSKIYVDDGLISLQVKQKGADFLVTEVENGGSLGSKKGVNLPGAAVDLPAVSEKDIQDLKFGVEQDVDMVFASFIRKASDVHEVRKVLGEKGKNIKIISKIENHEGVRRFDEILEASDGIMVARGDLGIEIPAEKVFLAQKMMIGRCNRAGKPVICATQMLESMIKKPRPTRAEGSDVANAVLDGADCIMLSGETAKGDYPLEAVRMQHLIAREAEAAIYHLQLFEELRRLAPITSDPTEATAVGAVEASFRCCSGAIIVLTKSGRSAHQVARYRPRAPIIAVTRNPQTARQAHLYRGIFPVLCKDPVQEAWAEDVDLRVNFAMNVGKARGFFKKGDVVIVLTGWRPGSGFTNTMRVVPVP", "assay": "Blue native gel electrophoresis, PKM2 (K422R)", "format": "binding", "details": "with or without FBP", "experimental": "as §1\nTo test the possibility that PKM2 tetramerization is important for the cell survival activity, the present inventors reconstituted PKM2-deficient MEFs with the stably tetrameric PKIM2 (K422R) mutant. […] Blue native gel electrophoresis confirmed the spontaneous formation of K422R tetramers, in the absence of FBP (FIG. 4A). […] The present inventors conclude that IB5 can bind to PKIM2 (K422R), at least to the active R-state form. Interaction of IB5 may further stabilize the active R-state conformation of PKM2, especially in the presence of the allosteric activators FBP or TEPP-46."}, "[8]": {"molecular_target": "T3, PKM2 (K270M) (Homo sapiens, UniProt P14618, K270M)", "T3 construct": "His (N); made in house; host or cells: Escherichia coli BL21(DE3)", "T3 sequence (P14618 whole entry K270M)": "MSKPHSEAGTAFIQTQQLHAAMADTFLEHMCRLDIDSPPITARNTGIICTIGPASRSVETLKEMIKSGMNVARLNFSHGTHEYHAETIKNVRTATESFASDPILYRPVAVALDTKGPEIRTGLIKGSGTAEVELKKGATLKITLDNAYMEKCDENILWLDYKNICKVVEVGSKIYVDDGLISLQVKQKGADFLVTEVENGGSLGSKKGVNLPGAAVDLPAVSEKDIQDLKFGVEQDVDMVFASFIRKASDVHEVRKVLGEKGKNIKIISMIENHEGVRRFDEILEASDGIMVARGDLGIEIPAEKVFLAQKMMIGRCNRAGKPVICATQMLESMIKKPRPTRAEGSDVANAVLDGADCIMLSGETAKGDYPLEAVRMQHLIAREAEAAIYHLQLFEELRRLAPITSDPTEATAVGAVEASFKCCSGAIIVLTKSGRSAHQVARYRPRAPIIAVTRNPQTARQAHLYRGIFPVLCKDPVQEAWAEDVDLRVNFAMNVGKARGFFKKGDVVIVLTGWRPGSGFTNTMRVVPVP", "assay": "Blue native gel electrophoresis, PKM2 (K270M)", "format": "binding", "details": "not shown", "source_text": "To begin to define the aspects of PKM2 function required for the IB5-induced anti-apoptotic effect, the present inventors reconstituted PKM2-null MEFs with WT or mutant forms of PKM2. The present inventors first analyzed the K270M mutation, reported to be catalytically dead (Bollenbach et al., 1999; Dombrauckas et al., 2005; Luo et al., 2011)."}, "[9]": {"molecular_target": "T1, WT PKM2", "assay": "Pyruvate kinase assay (Kinase-Glo Plus), WT PKM2", "format": "biochemical", "details": "PKM2 at 50 nM; ADP and PEP as substrates", "experimental": "Activity was measured by Kinase-Glo® Plus Luminescent Kinase Assay kit (promega), using ADP and PEP as substrates), with PKM2 at 50 nM. Shown are values with the basal activity of PKM2 alone subtracted out.\nPyruvate kinase activity was measured by using Kinase-Glo® Plus Luminescent Kinase Assay kit (Promega). 50-100 nM of purified WT or mutant PKM2 was added in 100 μl assay buffer containing 50 mM Tris pH7.5, 100 mM KCl, 10 mM MgCl2, 200 μM PEP, 200 μM ADP, and 3% DMSO. After a 15-min incubation, Kinase-Glo Plus™ reagent (Promega Corporation, Madison, Wis., USA) was added, according to the manufacturer's instructions. In some cases, 0-40 μM fructose 1,6-bisphosphate (FBP) and 0-150 nM scFv 5 were added."}, "[10]": {"molecular_target": "Bax (Homo sapiens, UniProt Q07812)", "sequence (Q07812 whole entry, species assumed)": "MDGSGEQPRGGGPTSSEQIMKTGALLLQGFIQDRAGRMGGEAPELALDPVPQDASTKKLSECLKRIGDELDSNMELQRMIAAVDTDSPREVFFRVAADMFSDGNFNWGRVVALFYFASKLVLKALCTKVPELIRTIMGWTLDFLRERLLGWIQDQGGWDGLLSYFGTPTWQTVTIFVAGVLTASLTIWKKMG", "assay": "In vitro Bax/cBid membrane permeabilization in liposomes or Xenopus egg mitochondrial outer membrane vesicles", "format": "biochemical", "details": "recombinant scFv 5 added together with PKM2; not shown", "source_text": "Because no cytoprotective effect was seen when PKM2 was stimulated with allosteric activator TEPP-46 alone, or when PKM2 was replaced with the constitutively active PKIM1 (FIG. 3), the present inventors conclude that increased pyruvate kinase activity per se was insufficient for the cell survival effect induced by IB5. To test whether IB5:PIKM2 complexes could affect pro-apoptotic Bcl-2 family proteins directly, the present inventors used their own previously well-validated in vitro systems that recapitulate Bcl-2 family protein function in membranes. Here, recombinant Bax and cleaved Bid (cBid) proteins are incubated with protein-free liposomes or with isolated Xenopus egg mitochondrial outer membrane vesicles. Bax then becomes inserted into the membranes and forms large pores that recapitulate MOMP as it occurs within cells (Gillies et al., 2015; Kuwana et al., 2002; Kuwana et al., 2016; Schafer et al., 2009). The present inventors observed no effect of adding recombinant scFv 5 and PKIVI2 to these systems (not shown). Thus, the inventors saw no evidence that PKM2 acts directly on the process of Bax/Bak-mediated MOMP."}, "[11]": {"tested_on": "PKM2-deficient MEFs reconstituted with WT PKM2", "assay": "Mitochondrial length by fluorescence microscopy (Tom20 staining)", "format": "cell-based, mouse", "details": "PKM2-null MEFs reconstituted with WT PKM2", "source_text": "IB5 expression with WT PKM2 increased mitochondrial length, and PKM2 (K422R) expression increased mitochondrial length even in the absence of IB5. PKM2-deficient MEFs reconstituted with WT PKIM2 or PKM2(K422R) cDNA, were infected or not with IB5 lentivirus. […] Mitochondria were visualized by fluorescence microscopy after staining with Tom20 antibodies. Representative confocal images are shown.\nCells were analyzed 3 d after transfection with the indicated cDNA constructs (mean±s.e.m. of 3-5 experiments of 120-200 random selected cells."}},
  "data": [
    {"molecule": "IB5: intracellularly expressed single-chain antibody (scFv) specific for PKM2, SEQ ID NO: 2; also made as monovalent recombinant scFv in E. coli (protein, artificial intrabody clone 5, also made as monovalent recombinant scFv in E. coli) scFv: MAQVQLVETGPGLVKPSETLSLRCTVSGGSFDNYYWNWIRQPPGKGLEYIGYVFPSTGATNYNPSLGSRVTISLDTSKNQFSLTLTSVTTADTAIYYCVRSGHDLWTGSTWFDPWGQWTTVTVSSGGGGSGGGGSGGGGSEIVLTQSPGTLSLSPGERATLSCRASQSVSSSYLAWYQQKPGQAPRLLIYGASSRATGIPDRFSGSGSGTDFTLTISRLEPEDIAVYYCQQRSNWPRTFGQGTKVEIKRGLGGLASVDYKDDDDK", "values": [
      {"measurement": "protection from BimS-induced apoptosis (clonogenicity)", "setting": "[1]", "result": "substantially protected"},
      {"measurement": "protection from BimS-induced apoptosis (clonogenicity)", "setting": "[2]", "result": "substantially protected"},
      {"measurement": "rescue from BimS-induced cell death", "setting": "[3]", "result": "failed to rescue"},
      {"measurement": "protection from death induced by transient expression of tBid", "setting": "[4]", "result": "protected from death"},
      {"measurement": "tetramer formation of WT PKM2", "setting": "[5]; blue native gel", "result": "strongly increased the tetrameric PIKMV2 species"},
      {"measurement": "direct binding to PKM2", "setting": "[5]; in vitro experiments", "result": "bound directly to PKM2"},
      {"measurement": "shift of electrophoretic mobility of recombinant PKM1", "setting": "[6]", "result": "failed to shift the electrophoretic mobility"},
      {"measurement": "shift of the PKM2 (K422R) tetramer band", "setting": "[7]", "result": "shifted the tetramer band up only in the presence of allosteric activator FBP"},
      {"measurement": "stable tetramer formation of PKM2 (K270M)", "setting": "[8]", "result": "prevented the protein from forming stable tetramers"},
      {"measurement": "glycolytic (pyruvate kinase) activity of WT PKM2", "setting": "[9]", "result": "stimulated PKM2's glycolytic activity in a concentration-dependent manner"},
      {"measurement": "effect on Bax-mediated membrane pore formation (MOMP) in vitro", "setting": "[10]", "result": "no effect"},
      {"measurement": "average mitochondrial length", "setting": "[11]", "result": "increased the average mitochondrial length"}
    ]}
  ]
}
